In patent US20190016825A1 (JIANGSU HENGRUI MEDICINE, published 2019):

Tests used:
PCSK9-BP15-His6 [1] = molecular target: T1, PCSK9-BP15-His6 (human, UniProt Q8NBP7 31-692, biotin on the BP15 biotin receiving peptide); experiment: ELISA, bio-WT-PCSK9 captured on streptavidin plate
T1 construct: It holds a signal peptide (underlined in print); also called WT PCSK9; bio-WT-PCSK9
Experimental: The binding ability of anti-PCSK9 antibodies of the present invention to PCSK9 was detected by measuring the amount of antibodies binding to wild-type PCSK9 protein (WT PCSK9, SEQ ID NO: 5) fixed on the ELISA plate.
Streptavidin (sigma, CAT#S4762) was diluted to 2 μg/ml with PBS and coated into 96-well ELISA plate, at 4° C. overnight. The plate was washed and then blocked with Tris buffer (including 0.9 mM CaCl2, 0.05% Tween 20 and 5% skim milk) at 37° C. for 2 hours. Then the plate was washed again and 100 μl/well of the biotin-labeled PCSK9, produced in-house, (bio-WT-PCSK9, diluted with Tris buffer containing 0.9 mM CaCl2, 0.05% Tween 20 and 1% skim milk), was added and incubated at 37° C. for 1 hour. After the wash step, different concentrations of diluted PCSK9 antibody samples was added to the plate and incubated at 37° C. for 1 hour. Then the plate was washed again and HRP-goat-anti-human (H+L) antibody (Jackson ImmunoResearch, CAT#109-035-088) was added and incubated at 37° C. for 1 hour. Then the plate was washed again and tetramethylbenzidine solution was added for development. Finally, the stop solution was added and the OD450 value was measured on the Microplate reader, and then EC50 was calculated.

PCSK9-BP15-His6 [2] = molecular target: T1, PCSK9-BP15-His6; experiment: blocking ELISA, LDLR-FC (SEQ ID NO: 8) coated, bio-WT-PCSK9 plus antibody
Experimental: The blocking abilities of PCSK9 antibodies of the present invention to the binding of LDLR-FC (produced in-house, sequence is shown in SEQ ID NO: 8) to PCSK9 (SEQ ID NO: 5) were detected by measuring the amount of PCSK9 binding to LDLR in the presence of the antibodies.
LDLR-FC was diluted to 5 μg/ml with phosphate buffer and coated in the 96-well ELISA plate, then incubated at 4° C. overnight. The plate was washed and then blocked with Tris buffer (including 0.9 mM CaCl₂, 0.05% Tween 20 and 5% skim milk) at 37° C. for 2 hours. Then the plate was washed again and 100 μl/well of the mixture of biotin-labeled PCSK9 (bio-WT-PCSK9, diluted to the final concentration of 2 μg/ml with Tris buffer containing 0.9 mM CaCl₂, 0.05% Tween 20 and 1% skim milk) and antibody samples (diluted with Tris buffer containing 0.9 mM CaCl₂, 0.05% Tween 20 and 1% skim milk) were added and incubated at 37° C. for 1 hour. Then the plate was washed again and horseradish peroxidase-streptavidin (Sigma, CAT#52438) was added and incubated at 37° C. for 1 hour. Then the plate was washed and tetramethylbenzidine solution was added for development. Finally, the stop solution was added and the OD450 was measured on the Microplate reader, then IC50 was calculated.

PCSK9-D374Y-BP15-His6 [3] = molecular target: T2, PCSK9-D374Y-BP15-His6 (human, UniProt Q8NBP7 31-692, biotin on the BP15 biotin receiving peptide); experiment: ELISA, bio-PCSK9-Y captured on streptavidin plate
T2 construct: also called PCSK9-Y; mutant PCSK9
Experimental: The binding ability of anti-PCSK9 antibodies of the present invention to PCSK9-Y was detected by measuring the amount of antibodies binding to PCSK9-Y (mutant PCSK9, SEQ ID NO: 6) fixed on the ELISA plate.
Streptavidin (sigma, CAT#54762) was diluted to 2 μg/ml with PBS and coated into 96-well ELISA plate at 4° C. overnight. The plate was washed and then blocked with Tris buffer (including 0.9 mM CaCl₂, 0.05% Tween 20 and 5% skim milk) at 37° C. for 2 hours. Then the plate was washed again and 100 μl/well of the biotin-labeled PCSK9-Y, produced in-house, (bio-PCSK9-Y, diluted with Tris buffer containing 0.9 mM CaCl₂, 0.05% Tween 20 and 1% skim milk) was added and incubated at 37° C. for 1 hour. After the wash step, different concentrations of diluted PCSK9 antibody samples were added to the plate and incubated at 37° C. for 1 hour. Then the plate was washed again and HRP-goat-anti-human (H+L) antibody (Jackson ImmunoResearch, CAT#109-035-088) was added and incubated at 37° C. for 1 hour. Then the plate was washed again and tetramethylbenzidine solution was added for development. Finally, the stop solution was added and the OD450 value was measured on the Microplate reader, and then EC50 was calculated.
The results of ELISA test for the binding ability of chimeric antibodies and back-mutated antibodies of the present invention to mutant PCSK9 are shown in table 6.

PCSK9-D374Y-BP15-His6 [4] = molecular target: T2, PCSK9-D374Y-BP15-His6; experiment: blocking ELISA, LDLR-FC (SEQ ID NO: 8) coated, bio-PCSK9-Y plus antibody
Experimental: The blocking abilities of anti-PCSK9 antibodies to the binding of LDLR-FC (SEQ ID NO: 8) to PCSK9-Y (mutant PCSK9, SEQ ID NO: 6) were detected by measuring the amount of PCSK9-Y binding to LDLR in the presence of the antibodies.
LDLR-FC was diluted to 2 μg/ml with phosphate buffer and coated in the 96-well ELISA plate (Costar, CAT#3590), then incubated at 4° C. overnight. The plate was washed and then blocked with Tris buffer (including 0.9 mM CaCl₂, 0.05% Tween 20 and 5% skim milk) at 37° C. for 2 hours. Then the plate was washed again and 100 μl/well of the mixture of biotin-labeled PCSK9-Y (bio-PCSK9-Y, diluted to final concentration of […] with Tris buffer containing 0.9 mM CaCl₂, 0.05% Tween 20 and 1% skim milk) and antibody samples (diluted with Tris buffer containing 0.9 mM CaCl₂, 0.05% Tween 20 and 1% skim milk) were added and incubated at 37° C. for 1 hour. Then the plate was washed again and horseradish peroxidase-streptavidin (sigma, CAT#S2438) was added and incubated at 37° C. for 1 hour. Then the plate was washed and tetramethylbenzidine solution was added for development. Finally, the stop solution was added and the OD450 value was measured on the Microplate reader, then IC50 was calculated.
The results of blocking test for the blocking effects of the chimeric antibodies and back-mutated antibodies of the present invention on the binding of LDLR-FC/PCSK9-Y are shown in table 7.

Row | EC50 (PCSK9-BP15-His6 [1]) | IC50 (PCSK9-BP15-His6 [2]) | EC50 (PCSK9-D374Y-BP15-His6 [3]) | IC50 (PCSK9-D374Y-BP15-His6 [4]) | Binder
1 | 0.0084 µg/mL | 0.5 µg/mL | 0.0132 µg/mL | 0.566 µg/mL | h001-1 (antibody, human IgG1, V domains shown, Variable regions only; also called h001_VH.1 + h001_VL.1) VH: QVQLVQSGAEVKKPGASVKVSCKASGYTFTDYWMHWVRQAPGQGLEWMGYINPSSGFTKYHQNFKDRVTMTRDTSISTAYMELSRLRSDDTAVYYCARQYDYDEDWYFDVWGQGTTVTVSS VL: DIQMTQSPSSLSASVGDRVTITCKSSQSLLNSRTRKNFLAWYQQKPGKAPKLLIYWASTRESGVPSRFSGSGSGTDFTLTISSLQPEDFATYYCKQSFNLFTFGQGTKLEIK
2 | 0.0141 µg/mL | 4.32 µg/mL | 0.0152 µg/mL | 0.468 µg/mL | h001-5 (antibody, human IgG1, V domains shown, Variable regions only; also called h001_VH.1A + h001_VL.1) VH: QVQLVQSGAEVKKPGASVKVSCKASGYTFNDYWMHWVRQAPGQGLEWMGYINPSSGFTKYHQNFKDRVTMTRDTSISTAYMELSRLRSDDTAVYYCARQYDYDEDWYFDVWGQGTTVTVSS VL: DIQMTQSPSSLSASVGDRVTITCKSSQSLLNSRTRKNFLAWYQQKPGKAPKLLIYWASTRESGVPSRFSGSGSGTDFTLTISSLQPEDFATYYCKQSFNLFTFGQGTKLEIK
3 | 0.009 µg/mL | 0.774 µg/mL | 0.0165 µg/mL | 0.414 µg/mL | h001-8 (antibody, human IgG1, V domains shown, Variable regions only; also called h001_VH.1A + h001_VL.1C) VH: QVQLVQSGAEVKKPGASVKVSCKASGYTFNDYWMHWVRQAPGQGLEWMGYINPSSGFTKYHQNFKDRVTMTRDTSISTAYMELSRLRSDDTAVYYCARQYDYDEDWYFDVWGQGTTVTVSS VL: DIVMSQSPSSLSASVGDRVTITCKSSQSLLNSRTRKNFLAWYQQKPGKSPKLLIYWASTRESGVPDRFSGSGSGTDFTLTISSLQPEDFATYYCKQSFNLFTFGQGTKLEIK
4 | 0.0113 µg/mL | 0.702 µg/mL | 0.0152 µg/mL | 0.475 µg/mL | h001-3 (antibody, human IgG1, V domains shown, Variable regions only; also called h001_VH.1 + h001_VL.1B) VH: QVQLVQSGAEVKKPGASVKVSCKASGYTFTDYWMHWVRQAPGQGLEWMGYINPSSGFTKYHQNFKDRVTMTRDTSISTAYMELSRLRSDDTAVYYCARQYDYDEDWYFDVWGQGTTVTVSS VL: DIQMSQSPSSLSASVGDRVTITCKSSQSLLNSRTRKNFLAWYQQKPGKAPKLLIYWASTRESGVPDRFSGSGSGTDFTLTISSLQPEDFATYYCKQSFNLFTFGQGTKLEIK
5 | 0.012 µg/mL | 0.652 µg/mL | 0.0137 µg/mL | 0.515 µg/mL | h001-7 (antibody, human IgG1, V domains shown, Variable regions only; also called h001_VH.1A + h001_VL.1B) VH: QVQLVQSGAEVKKPGASVKVSCKASGYTFNDYWMHWVRQAPGQGLEWMGYINPSSGFTKYHQNFKDRVTMTRDTSISTAYMELSRLRSDDTAVYYCARQYDYDEDWYFDVWGQGTTVTVSS VL: DIQMSQSPSSLSASVGDRVTITCKSSQSLLNSRTRKNFLAWYQQKPGKAPKLLIYWASTRESGVPDRFSGSGSGTDFTLTISSLQPEDFATYYCKQSFNLFTFGQGTKLEIK
6 | 0.01 µg/mL | 0.662 µg/mL | 0.0144 µg/mL | 0.437 µg/mL | h001-6 (antibody, human IgG1, V domains shown, Variable regions only; also called h001_VH.1A + h001_VL.1A) VH: QVQLVQSGAEVKKPGASVKVSCKASGYTFNDYWMHWVRQAPGQGLEWMGYINPSSGFTKYHQNFKDRVTMTRDTSISTAYMELSRLRSDDTAVYYCARQYDYDEDWYFDVWGQGTTVTVSS VL: DIQMTQSPSSLSASVGDRVTITCKSSQSLLNSRTRKNFLAWYQQKPGKAPKLLIYWASTRESGVPDRFSGSGSGTDFTLTISSLQPEDFATYYCKQSFNLFTFGQGTKLEIK
7 | 0.0136 µg/mL | 0.923 µg/mL | 0.0194 µg/mL | 0.52 µg/mL | h001-9 (antibody, human IgG1, V domains shown, Variable regions only; also called h001_VH.1B + h001_VL.1) VH: QVQLVQSGAEVKKPGASVKVSCKASGYTFTDYWMHWVRQAPGQGLEWMGYINPSSGFTKYHQNFKDRVTMTRDTSISTAYMELSRLTSDDTAVYYCARQYDYDEDWYFDVWGQGTTVTVSS VL: DIQMTQSPSSLSASVGDRVTITCKSSQSLLNSRTRKNFLAWYQQKPGKAPKLLIYWASTRESGVPSRFSGSGSGTDFTLTISSLQPEDFATYYCKQSFNLFTFGQGTKLEIK
8 | 0.0123 µg/mL | 0.675 µg/mL | 0.0157 µg/mL | 0.455 µg/mL | h001-2 (antibody, human IgG1, V domains shown, Variable regions only; also called h001_VH.1 + h001_VL.1A) VH: QVQLVQSGAEVKKPGASVKVSCKASGYTFTDYWMHWVRQAPGQGLEWMGYINPSSGFTKYHQNFKDRVTMTRDTSISTAYMELSRLRSDDTAVYYCARQYDYDEDWYFDVWGQGTTVTVSS VL: DIQMTQSPSSLSASVGDRVTITCKSSQSLLNSRTRKNFLAWYQQKPGKAPKLLIYWASTRESGVPDRFSGSGSGTDFTLTISSLQPEDFATYYCKQSFNLFTFGQGTKLEIK
9 | 0.0176 µg/mL | 0.829 µg/mL | 0.0209 µg/mL | 0.514 µg/mL | h001-10 (antibody, human IgG1, V domains shown, Variable regions only; also called h001_VH.1B + h001_VL.1A) VH: QVQLVQSGAEVKKPGASVKVSCKASGYTFTDYWMHWVRQAPGQGLEWMGYINPSSGFTKYHQNFKDRVTMTRDTSISTAYMELSRLTSDDTAVYYCARQYDYDEDWYFDVWGQGTTVTVSS VL: DIQMTQSPSSLSASVGDRVTITCKSSQSLLNSRTRKNFLAWYQQKPGKAPKLLIYWASTRESGVPDRFSGSGSGTDFTLTISSLQPEDFATYYCKQSFNLFTFGQGTKLEIK
10 | 0.0084 µg/mL | 0.836 µg/mL | 0.0132 µg/mL | 0.392 µg/mL | Ch-001 (antibody, V domains shown, also called chimeric antibody) VH: QVHLQQSGAELAKPGASVKLSCKASGYTFNDYWMHWVKERPGQGLEWIGYINPSSGFTKYHQNFKDKATLTADKSSSTAYMQLSSLTYDDSAVYYCARQYDYDEDWYFDVWGTGTTVTVSS VL: DIVMSQSPSSLAVSAGEKVTMSCKSSQSLLNSRTRKNFLAWYQQKPGQSPKLLIYWASTRESGVPDRFTGRGSGTDFTLTISSVQAEDLAVYYCKQSFNLFTFGSGTKLEIK
